Assay results reported in the RNAGym collection of RNA variant scans (doi:10.1101/gr.219683.116).

B1: mRNA-splicing (parent)
chain: AGUUGCUGCUGGGAGCUCCAGCACAGUGAAAUGGACAGAAGGGCAGAGCAA

Variants of: B1
Test: exon inclusion enrichment index; higher = more inclusion; WT1 exon 5 minigene, HEK293

| Variant | exon inclusion enrichment index |
| --- | --- |
| G5A C6U U7A G8U C9A G41U | 0.077 |
| G5A C6U U7A G8U C9A G41A | 0.0374 |
| G5A C6U U7A G8U C9A G41C | 0.435 |
| G5A C6U U7A G8U C9A A30U A31G | 0.0609 |
| G5A C6U U7A G8U C9A A30U A31U | 0.0488 |
| G5A C6U U7A G8U C9A A30U A31C | 0.064 |
| G5A C6U U7A G8U C9A G26A | 0.141 |
| G5A C6U U7A G8U C9A G26C | 0.142 |
| G5A C6U U7A G8U C9A G26U | 0.0898 |
| G5A C6U U7A G8U C9A G11U G12U | 0.00843 |
| G5A C6U U7A G8U C9A G11U G12C | 0.033 |
| G5A C6U U7A G8U C9A G11U G12A | 0.00404 |
| G5A C6U U7A G8U C9A C16A | 0.0643 |
| G5A C6U U7A G8U C9A C16U | 0.0512 |
| G5A C6U U7A G8U C9A C16G | 0.0112 |
| G5A C6U U7A G8U C9A A39G A40G | 0.00821 |
| G5A C6U U7A G8U C9A A39G A40U | 0.00682 |
| G5A C6U U7A G8U C9A A39G A40C | 0.102 |
| G5A C6U U7A G8U C9A G11A G12U | 0.01 |
| G5A C6U U7A G8U C9A G11A G12A | 0.00659 |
| G5A C6U U7A G8U C9A G11A G12C | 0.0285 |
| G5A C6U U7A G8U C9A A25C G26C | 0.0828 |
| G5A C6U U7A G8U C9A A25C G26A | 0.223 |
| G5A C6U U7A G8U C9A A25C G26U | 0.133 |

| Variant | exon inclusion enrichment index |
| --- | --- |
| G5A C6U U7A G8U C9A A47C G48U | 0.0767 |
| G5A C6U U7A G8U C9A A47C G48A | 0.0387 |
| G5A C6U U7A G8U C9A A47C G48C | 0.0967 |
| G5A C6U U7A G8U C9A C36G | 0.0434 |
| G5A C6U U7A G8U C9A C36A | 0.0298 |
| G5A C6U U7A G8U C9A C36U | 0.00462 |
| G5A C6U U7A G8U C9A G13A A14U | 0.189 |
| G5A C6U U7A G8U C9A G13A A14G | 0.0895 |
| G5A C6U U7A G8U C9A G13A A14C | 0.394 |
| G5A C6U U7A G8U C9A G41A G42C | 0.172 |
| G5A C6U U7A G8U C9A G41A G42A | 0.0506 |
| G5A C6U U7A G8U C9A G41A G42U | 0.0659 |
| G5A C6U U7A G8U C9A G13A | 0.144 |
| G5A C6U U7A G8U C9A G13U | 0.00122 |
| G5A C6U U7A G8U C9A G13C | 0.0162 |
| G5A C6U U7A G8U C9A C24A A25U | 0.0699 |
| G5A C6U U7A G8U C9A C24A A25G | 0.0412 |
| G5A C6U U7A G8U C9A C24A A25C | 0.405 |
| G5A C6U U7A G8U C9A A35U C36U | 0.000729 |
| G5A C6U U7A G8U C9A A35U C36A | 0.000817 |
| G5A C6U U7A G8U C9A A35U C36G | 0.00319 |
| G5A C6U U7A G8U C9A G38U A39G | 0.03 |
| G5A C6U U7A G8U C9A G38U A39U | 0.00248 |
| G5A C6U U7A G8U C9A G38U A39C | 0.045 |

| Variant | exon inclusion enrichment index |
| --- | --- |
| G5A C6U U7A G8U C9A G21C C22A | 0.109 |
| G5A C6U U7A G8U C9A G21C C22U | 0.0665 |
| G5A C6U U7A G8U C9A G21C C22G | 0.197 |
| G5A C6U U7A G8U C9A C22U | 0.0424 |
| G5A C6U U7A G8U C9A C22G | 0.0616 |
| G5A C6U U7A G8U C9A C22A | 0.0781 |
| G5A C6U U7A G8U C9A A29G A30G | 0.0286 |
| G5A C6U U7A G8U C9A A29G A30C | 0.0104 |
| G5A C6U U7A G8U C9A A29G A30U | 0.00704 |
| G5A C6U U7A G8U C9A G11C G12U | 0.0197 |
| G5A C6U U7A G8U C9A G11C G12C | 0.0512 |
| G5A C6U U7A G8U C9A G11C G12A | 0.0128 |
| G5A C6U U7A G8U C9A G28U A29C | 0.0467 |
| G5A C6U U7A G8U C9A G28U A29G | 0.0696 |
| G5A C6U U7A G8U C9A G28U A29U | 0.00744 |
| G5A C6U U7A G8U C9A C16U U17A | 0.0252 |
| G5A C6U U7A G8U C9A C16U U17C | 0.0363 |
| G5A C6U U7A G8U C9A C16U U17G | 0.0217 |
| G5A C6U U7A G8U C9A G21A C22A | 0.0256 |
| G5A C6U U7A G8U C9A G21A C22G | 0.0719 |
| G5A C6U U7A G8U C9A G21A C22U | 0.021 |
| G5A C6U U7A G8U C9A G33C | 0.108 |
| G5A C6U U7A G8U C9A G33U | 0.00963 |
| G5A C6U U7A G8U C9A G33A | 0.00613 |

| Variant | exon inclusion enrichment index |
| --- | --- |
| G5A C6U U7A G8U C9A C16G U17G | 0.00515 |
| G5A C6U U7A G8U C9A C16G U17C | 0.00521 |
| G5A C6U U7A G8U C9A C16G U17A | 0.0334 |
| G5A C6U U7A G8U C9A G21U | 0.0639 |
| G5A C6U U7A G8U C9A G21C | 0.0844 |
| G5A C6U U7A G8U C9A G21A | 0.071 |
| G5A C6U U7A G8U C9A G34C | 0.0129 |
| G5A C6U U7A G8U C9A G34U | 0.00388 |
| G5A C6U U7A G8U C9A G34A | 0.0272 |
| G5A C6U U7A G8U C9A C19U | 0.00395 |
| G5A C6U U7A G8U C9A C19A | 0.0415 |
| G5A C6U U7A G8U C9A C19G | 0.0674 |
| G5A C6U U7A G8U C9A A40U G41C | 0.359 |
| G5A C6U U7A G8U C9A A40U G41A | 0.00198 |
| G5A C6U U7A G8U C9A A40U G41U | 0.0246 |
| G5A C6U U7A G8U C9A A47U G48C | 0.0371 |
| G5A C6U U7A G8U C9A A47U G48U | 0.0462 |
| G5A C6U U7A G8U C9A A47U G48A | 0.0443 |
| G5A C6U U7A G8U C9A G21U C22U | 0.00572 |
| G5A C6U U7A G8U C9A G21U C22A | 0.0356 |
| G5A C6U U7A G8U C9A G21U C22G | 0.0561 |
| G5A C6U U7A G8U C9A A37C G38U | 0.00922 |
| G5A C6U U7A G8U C9A A37C G38C | 0.0761 |
| G5A C6U U7A G8U C9A A37C G38A | 0.0896 |

| Variant | exon inclusion enrichment index |
| --- | --- |
| G5A C6U U7A G8U C9A G12C | 0.0374 |
| G5A C6U U7A G8U C9A G12U | 0.0278 |
| G5A C6U U7A G8U C9A G12A | 0.0361 |
| G5A C6U U7A G8U C9A G13C A14C | 0.039 |
| G5A C6U U7A G8U C9A G13C A14G | 0.145 |
| G5A C6U U7A G8U C9A G13C A14U | 0.0623 |
| G5A C6U U7A G8U C9A C16A U17A | 0.0573 |
| G5A C6U U7A G8U C9A C16A U17C | 0.0702 |
| G5A C6U U7A G8U C9A C16A U17G | 0.0322 |
| G5A C6U U7A G8U C9A A45U G46C | 0.0684 |
| G5A C6U U7A G8U C9A A45U G46U | 0.0214 |
| G5A C6U U7A G8U C9A A45U G46A | 0.0424 |
| G5A C6U U7A G8U C9A C44A | 0.286 |
| G5A C6U U7A G8U C9A C44U | 0.00684 |
| G5A C6U U7A G8U C9A C44G | 0.115 |
| G5A C6U U7A G8U C9A G38C A39U | 0.0021 |
| G5A C6U U7A G8U C9A G38C A39G | 0.115 |
| G5A C6U U7A G8U C9A G38C A39C | 0.105 |
| G5A C6U U7A G8U C9A G34C A35U | 0.0109 |
| G5A C6U U7A G8U C9A G34C A35C | 0.00243 |
| G5A C6U U7A G8U C9A G34C A35G | 0.0452 |
| G5A C6U U7A G8U C9A A39C A40C | 0.204 |
| G5A C6U U7A G8U C9A A39C A40U | 0.0208 |
| G5A C6U U7A G8U C9A A39C A40G | 0.0817 |

| Variant | exon inclusion enrichment index |
| --- | --- |
| G5A C6U U7A G8U C9A A47G | 0.0115 |
| G5A C6U U7A G8U C9A A47U | 0.0348 |
| G5A C6U U7A G8U C9A A47C | 0.133 |
| G5A C6U U7A G8U C9A G33A G34A | 0.0009 |
| G5A C6U U7A G8U C9A G33A G34C | 0.0195 |
| G5A C6U U7A G8U C9A G33A G34U | 0.0125 |
| G5A C6U U7A G8U C9A G13U A14C | 0.0467 |
| G5A C6U U7A G8U C9A G13U A14U | 0.0119 |
| G5A C6U U7A G8U C9A G13U A14G | 0.00922 |
| G5A C6U U7A G8U C9A G15U C16A | 0.0179 |
| G5A C6U U7A G8U C9A G15U C16U | 0.00626 |
| G5A C6U U7A G8U C9A G15U C16G | 0.0108 |
| G5A C6U U7A G8U C9A A37G G38C | 0.113 |
| G5A C6U U7A G8U C9A A37G G38U | 0.0165 |
| G5A C6U U7A G8U C9A A37G G38A | 0.0869 |
| G5A C6U U7A G8U C9A A37U | 0.0684 |
| G5A C6U U7A G8U C9A A37G | 0.17 |
| G5A C6U U7A G8U C9A A37C | 0.285 |
| G5A C6U U7A G8U C9A A37U G38C | 0.0673 |
| G5A C6U U7A G8U C9A A37U G38U | 0.0205 |
| G5A C6U U7A G8U C9A A37U G38A | 0.0163 |
| G5A C6U U7A G8U C9A G26A U27C | 0.504 |
| G5A C6U U7A G8U C9A G26A U27A | 0.122 |
| G5A C6U U7A G8U C9A G26A U27G | 0.168 |

| Variant | exon inclusion enrichment index |
| --- | --- |
| G5A C6U U7A G8U C9A A29C A30G | 0.219 |
| G5A C6U U7A G8U C9A A29C A30C | 0.142 |
| G5A C6U U7A G8U C9A A29C A30U | 0.0308 |
| G5A C6U U7A G8U C9A G12U G13A | 0.00185 |
| G5A C6U U7A G8U C9A G12U G13C | 0.00721 |
| G5A C6U U7A G8U C9A G12U G13U | 0.00049 |
| G5A C6U U7A G8U C9A C24U A25U | 0.0538 |
| G5A C6U U7A G8U C9A C24U A25C | 0.546 |
| G5A C6U U7A G8U C9A C24U A25G | 0.165 |
| G5A C6U U7A G8U C9A C36U A37U | 0.0384 |
| G5A C6U U7A G8U C9A C36U A37G | 0.0518 |
| G5A C6U U7A G8U C9A C36U A37C | 0.0296 |
| G5A C6U U7A G8U C9A C22A A23C | 0.189 |
| G5A C6U U7A G8U C9A C22A A23G | 0.0409 |
| G5A C6U U7A G8U C9A C22A A23U | 0.0397 |
| G5A C6U U7A G8U C9A C36G A37U | 0.0196 |
| G5A C6U U7A G8U C9A C36G A37G | 0.00777 |
| G5A C6U U7A G8U C9A C36G A37C | 0.0098 |
| G5A C6U U7A G8U C9A A40C | 0.241 |
| G5A C6U U7A G8U C9A A40U | 0.0441 |
| G5A C6U U7A G8U C9A A40G | 0.0627 |
| G5A C6U U7A G8U C9A G26U U27A | 0.0488 |
| G5A C6U U7A G8U C9A G26U U27G | 0.261 |
